Experimental data as given in publication PMC9393700.

Assays:
Assay in all cases: SEC; Superdex S200 16/600 column; purified F proteins (Figure 2A)
[1] = target: trypsin-treated hMPV B2 F (human metapneumovirus B2)
[2] = target: RSV A2 F DsCav1 (trimer) (respiratory syncytial virus A2)
[3] = target: RSV head hMPV stem construct 1 (RHMS-1) (respiratory syncytial virus (RSV-A in Figure 1B) | human metapneumovirus (hMPV-A1 in Figure 1B)) (UniProt P03420)

trypsin-treated hMPV B2 F (natural protein)
stoichiometry N [1]: 3

RSV A2 F DsCav1 (trimer) (natural protein)
stoichiometry N [2]: 3

RSV head hMPV stem construct 1 (RHMS-1) (from UniProt P03420 1-25; P03420 55-314)
stoichiometry N [3]: 3
